Reference: the supplement of paper PMC10567573

B1: COX4I1 (parent)
chain: FDKEWVAKQTKRMLDMKVNPIQGL
B2: ZC3H15 (parent)
chain: RKADFKAGKALVISGREVFEFRPE

Variants of: B1
Assay: protein stability index of a GFP-peptide fusion (GPS, HEK-293T) (PSI 1-6); higher = more stable
Conditions: c terminus: a fixed tail appended
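Also: lentivirally expressed fusions sorted by FACS into six bins by GFP to DsRed ratio, PSI derived from sequencing read proportions per bin multiplied by bin number.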

| Variant | protein stability index |
| --- | --- |
| FDKEWVAKQTKRMLDMKVNPISGL | 2.23 |
| FDKEWVAKQTKRMLDMKVNPITGL | 1.91 |
| FDKEWVAKQTKRMLDMKVNPIVGL | 2.58 |
| FDKEWVAKQTKRMLDMKVNPIWGL | 1.68 |
| FDKEWVAKQTKRMLDMKVNPIYGL | 2.13 |
| FDKEWVAKQTKRMLDMKVNPIQAL | 1.43 |
| FDKEWVAKQTKRMLDMKVNPIQCL | 3.51 |
| FDKEWVAKQTKRMLDMKVNPIQDL | 1.9 |
| FDKEWVAKQTKRMLDMKVNPIQEL | 1.72 |
| FDKEWVAKQTKRMLDMKVNPIQFL | 2.36 |
| FDKEWVAKQTKRMLDMKVNPIQHL | 1.4 |
| FDKEWVAKQTKRMLDMKVNPIQIL | 1.81 |
| FDKEWVAKQTKRMLDMKVNPIQKL | 2.02 |
| FDKEWVAKQTKRMLDMKVNPIQLL | 1.35 |
| FDKEWVAKQTKRMLDMKVNPIQML | 1.76 |
| FDKEWVAKQTKRMLDMKVNPIQNL | 1.8 |
| FDKEWVAKQTKRMLDMKVNPIQPL | 1.39 |
| FDKEWVAKQTKRMLDMKVNPIQQL | 2.02 |
| FDKEWVAKQTKRMLDMKVNPIQRL | 1.48 |
| FDKEWVAKQTKRMLDMKVNPIQSL | 1.7 |
| FDKEWVAKQTKRMLDMKVNPIQTL | 1.77 |
| FDKEWVAKQTKRMLDMKVNPIQVL | 1.59 |

| Variant | protein stability index |
| --- | --- |
| FDKEWVAKQTKRMLDMKVNPIQWL | 1.88 |
| FDKEWVAKQTKRMLDMKVNPIQYL | 1.92 |
| FDKEWVAKQTKRMLDMKVNPIQGA | 1.83 |
| FDKEWVAKQTKRMLDMKVNPIQGC | 2.19 |
| FDKEWVAKQTKRMLDMKVNPIQGD | 1.84 |
| FDKEWVAKQTKRMLDMKVNPIQGE | 3.09 |
| FDKEWVAKQTKRMLDMKVNPIQGF | 1.72 |
| FDKEWVAKQTKRMLDMKVNPIQGG | 2.86 |
| FDKEWVAKQTKRMLDMKVNPIQGH | 2.55 |
| FDKEWVAKQTKRMLDMKVNPIQGI | 2.3 |
| FDKEWVAKQTKRMLDMKVNPIQGK | 1.03 |
| FDKEWVAKQTKRMLDMKVNPIQGM | 1.74 |
| FDKEWVAKQTKRMLDMKVNPIQGN | 2.28 |
| FDKEWVAKQTKRMLDMKVNPIQGP | 2.08 |
| FDKEWVAKQTKRMLDMKVNPIQGQ | 2.45 |
| FDKEWVAKQTKRMLDMKVNPIQGR | 2.09 |
| FDKEWVAKQTKRMLDMKVNPIQGS | 2.31 |
| FDKEWVAKQTKRMLDMKVNPIQGT | 1.35 |
| FDKEWVAKQTKRMLDMKVNPIQGV | 1.91 |
| FDKEWVAKQTKRMLDMKVNPIQGW | 1.73 |
| FDKEWVAKQTKRMLDMKVNPIQGY | 1.59 |

Variants of: B2
Assay: as above
Conditions: c terminus: a fixed tail appended

| Variant | protein stability index |
| --- | --- |
| AKADFKAGKALVISGREVFEFRPE | 3.21 |
| CKADFKAGKALVISGREVFEFRPE | 1.91 |
| DKADFKAGKALVISGREVFEFRPE | 3.7 |
| EKADFKAGKALVISGREVFEFRPE | 3.5 |
| FKADFKAGKALVISGREVFEFRPE | 2.01 |
| GKADFKAGKALVISGREVFEFRPE | 2.95 |
| HKADFKAGKALVISGREVFEFRPE | 3.44 |
| IKADFKAGKALVISGREVFEFRPE | 1.58 |
| KKADFKAGKALVISGREVFEFRPE | 3.32 |
| LKADFKAGKALVISGREVFEFRPE | 2.43 |
| MKADFKAGKALVISGREVFEFRPE | 2.71 |
| NKADFKAGKALVISGREVFEFRPE | 3.23 |
| PKADFKAGKALVISGREVFEFRPE | 3.19 |
| QKADFKAGKALVISGREVFEFRPE | 2.99 |
| SKADFKAGKALVISGREVFEFRPE | 2.9 |
| TKADFKAGKALVISGREVFEFRPE | 3.22 |
| VKADFKAGKALVISGREVFEFRPE | 2.02 |
| WKADFKAGKALVISGREVFEFRPE | 2.53 |
| YKADFKAGKALVISGREVFEFRPE | 2.81 |
| RAADFKAGKALVISGREVFEFRPE | 3.43 |
| RCADFKAGKALVISGREVFEFRPE | 1.85 |
| RDADFKAGKALVISGREVFEFRPE | 3.43 |
| READFKAGKALVISGREVFEFRPE | 2.81 |
| RFADFKAGKALVISGREVFEFRPE | 2.06 |
| RGADFKAGKALVISGREVFEFRPE | 3.3 |
| RHADFKAGKALVISGREVFEFRPE | 2.46 |

| Variant | protein stability index |
| --- | --- |
| RIADFKAGKALVISGREVFEFRPE | 1.92 |
| RLADFKAGKALVISGREVFEFRPE | 1.76 |
| RMADFKAGKALVISGREVFEFRPE | 2.33 |
| RNADFKAGKALVISGREVFEFRPE | 3.24 |
| RPADFKAGKALVISGREVFEFRPE | 2.75 |
| RQADFKAGKALVISGREVFEFRPE | 3.23 |
| RRADFKAGKALVISGREVFEFRPE | 2.78 |
| RSADFKAGKALVISGREVFEFRPE | 3.02 |
| RTADFKAGKALVISGREVFEFRPE | 3.06 |
| RVADFKAGKALVISGREVFEFRPE | 2.49 |
| RWADFKAGKALVISGREVFEFRPE | 1.94 |
| RYADFKAGKALVISGREVFEFRPE | 2 |
| RKCDFKAGKALVISGREVFEFRPE | 2.09 |
| RKDDFKAGKALVISGREVFEFRPE | 3.7 |
| RKEDFKAGKALVISGREVFEFRPE | 3.77 |
| RKFDFKAGKALVISGREVFEFRPE | 2.23 |
| RKGDFKAGKALVISGREVFEFRPE | 3.13 |
| RKHDFKAGKALVISGREVFEFRPE | 2.44 |
| RKIDFKAGKALVISGREVFEFRPE | 2.71 |
| RKKDFKAGKALVISGREVFEFRPE | 3.12 |
| RKLDFKAGKALVISGREVFEFRPE | 2.57 |
| RKMDFKAGKALVISGREVFEFRPE | 2.75 |
| RKNDFKAGKALVISGREVFEFRPE | 3.11 |
| RKPDFKAGKALVISGREVFEFRPE | 2.95 |
| RKQDFKAGKALVISGREVFEFRPE | 3.06 |
